Columns and labels:
GNMT D70A mutant = GNMT D70A mutant (UniProt Q14749); assay: SEC; size-exclusion chromatography of wild type GNMT and catalytic-centre mutants; data not shown
GNMT L210S mutant = GNMT L210S mutant (UniProt Q14749); assay: SEC; size-exclusion chromatography on Sephacryl S300 of the folate-site mutants
GNMT M218D mutant = GNMT M218D mutant (UniProt Q14749); assay: as above
GNMT W30F mutant = GNMT W30F mutant (UniProt Q14749); assay: SEC; size-exclusion chromatography of wild type GNMT and catalytic-centre mutants; data not shown
GNMT Y6E mutant = GNMT Y6E mutant (UniProt Q14749); assay: SEC; size-exclusion chromatography on Sephacryl S300 of the folate-site mutants
GNMT Y244A mutant = GNMT Y244A mutant (UniProt Q14749); assay: SEC; size-exclusion chromatography of wild type GNMT and catalytic-centre mutants; data not shown
[1] = biological target: Glycine N-methyltransferase, wild type (UniProt Q14749); assay: as above

“GNMT D70A mutant (from UniProt Q14749 1-295) (enzyme)” gave a stoichiometry N (GNMT D70A mutant) of 4.

Substance “GNMT L210S mutant (from UniProt Q14749 1-295) (enzyme)” has a percent of the protein as dimer (GNMT L210S mutant) of 50%, a percent of the protein as monomer (GNMT L210S mutant) of 10% and a percent of the protein as tetramer (GNMT L210S mutant) of 40%.

Work on “GNMT M218D mutant (from UniProt Q14749 1-295) (enzyme)” yielded a stoichiometry N (GNMT M218D mutant) of 4.

Substance “GNMT W30F mutant (from UniProt Q14749 1-295) (enzyme)” has a stoichiometry N (GNMT W30F mutant) of 4.

With “GNMT Y6E mutant (from UniProt Q14749 1-295) (enzyme)” the stoichiometry N (GNMT Y6E mutant) was 4.

“GNMT Y244A mutant (from UniProt Q14749 1-295) (enzyme)” gave a stoichiometry N (GNMT Y244A mutant) of 4.

“Glycine N-methyltransferase, wild type (from UniProt Q14749 1-295) (enzyme)” gave a stoichiometry N [1] of 4.
